From US20240132626A1

Molecular target: Soluble human CD137 ECD protein (human) (UniProt Q07011)
Assay: SPR, captured via anti-human kappa, soluble ECD injected

Chain of Soluble human CD137 ECD protein (human) (Q07011 24-186): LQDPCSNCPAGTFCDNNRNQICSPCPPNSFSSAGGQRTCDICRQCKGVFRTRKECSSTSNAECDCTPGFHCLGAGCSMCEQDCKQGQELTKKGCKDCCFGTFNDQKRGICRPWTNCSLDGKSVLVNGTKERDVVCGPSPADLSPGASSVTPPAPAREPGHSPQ
Chain of Urelumab (antibody) (VH): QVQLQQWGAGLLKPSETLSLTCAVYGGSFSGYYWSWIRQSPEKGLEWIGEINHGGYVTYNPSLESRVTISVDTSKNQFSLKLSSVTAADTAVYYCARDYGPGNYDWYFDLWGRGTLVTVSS
Chain of Urelumab (antibody) (VL): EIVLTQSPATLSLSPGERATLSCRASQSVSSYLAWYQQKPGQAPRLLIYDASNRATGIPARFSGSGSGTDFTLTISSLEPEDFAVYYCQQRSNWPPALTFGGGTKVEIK

Kd: 11 nM
koff: 0.0023 s⁻¹
kon: 210000 M⁻¹ s⁻¹
Substance: Urelumab (antibody)
